Substrate: O=C(O)CO
Assay: purified protein
Conditions: 2 mM FMN, 5 mM MgSO4, 0.5 mM EDTA, 3 mM phenylhydrazine; measured in parallel with RcGOX

B1: AtGOX1 (Arabidopsis thaliana) (protein)
chain: MEITNVTEYDAIAKQKLPKMVYDYYASGAEDQWTLQENRNAFARILFRPRILIDVSKIDMTTTVLGFKISMPIMVAPTAMQKMAHPDGEYATARAASAAGTIMTLSSWATSSVEEVASTGPGIRFFQLYVYKNRNVVEQLVRRAERAGFKAIALTVDTPRLGRRESDIKNRFTLPPNLTLKNFEGLDLGKMDEANDSGLASYVAGQIDRTLSWKDVQWLQTITKLPILVKGVLTGEDARIAIQAGAAGIIVSNHGARQLDYVPATISALEEVVKATQGRIPVFLDGGVRRGTDVFKALALGASGIFIGRPVVFSLAAEGEAGVRKVLQMLRDEFELTMALSGCRSLKEISRNHITTEWDTPRPSARL
Km: 390 ± 100 µM
kcat: 1.04 ± 0.237 s⁻¹

Source: paper PMC7655567
